Results published in the supplement of paper PMC10065799, “High-throughput profiling of sequence recognition by tyrosine kinases and SH2 domains using bacterial peptide display” (eLife, 2023).

Key:
c-Src SH2 = test: SH2 binding enrichment of the phosphorylated peptide, bacterial display (enrichment ratio); higher = better substrate or ligand; peptides without Tyr show the background
Grb2 SH2 = Grb2 SH2 (UniProt P62993); test: as above
SHP2-C SH2 = test: as above
c-Abl (mouse) = test: phosphorylation enrichment, bacterial display (enrichment ratio); higher = better substrate or ligand; peptides without Tyr show the background
AncSZ = test: as above
EPHB1 = EPHB1 (UniProt P54762); test: as above
Hck = Hck (UniProt P08631); test: as above
Chain of Hck (P08631 whole entry, looked up): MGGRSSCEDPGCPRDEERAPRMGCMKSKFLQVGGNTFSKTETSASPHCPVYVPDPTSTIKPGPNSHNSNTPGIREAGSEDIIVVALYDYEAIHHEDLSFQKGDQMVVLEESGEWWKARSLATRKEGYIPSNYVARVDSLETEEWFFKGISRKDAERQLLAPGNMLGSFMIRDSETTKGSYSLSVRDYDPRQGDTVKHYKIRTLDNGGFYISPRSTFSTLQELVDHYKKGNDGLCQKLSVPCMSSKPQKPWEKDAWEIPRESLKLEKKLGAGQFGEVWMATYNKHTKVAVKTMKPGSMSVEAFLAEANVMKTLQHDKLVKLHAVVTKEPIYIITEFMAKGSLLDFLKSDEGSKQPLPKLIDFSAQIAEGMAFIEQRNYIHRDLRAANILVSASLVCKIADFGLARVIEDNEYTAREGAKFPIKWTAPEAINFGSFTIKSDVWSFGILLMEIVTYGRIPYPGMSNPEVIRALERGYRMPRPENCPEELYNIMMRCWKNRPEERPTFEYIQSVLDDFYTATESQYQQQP

Jak2 = Jak2 (UniProt O60674); test: as above
Fer (mouse) = test: as above
MERTK = MERTK (UniProt Q12866); test: as above
Chain of MERTK (Q12866 whole entry, looked up): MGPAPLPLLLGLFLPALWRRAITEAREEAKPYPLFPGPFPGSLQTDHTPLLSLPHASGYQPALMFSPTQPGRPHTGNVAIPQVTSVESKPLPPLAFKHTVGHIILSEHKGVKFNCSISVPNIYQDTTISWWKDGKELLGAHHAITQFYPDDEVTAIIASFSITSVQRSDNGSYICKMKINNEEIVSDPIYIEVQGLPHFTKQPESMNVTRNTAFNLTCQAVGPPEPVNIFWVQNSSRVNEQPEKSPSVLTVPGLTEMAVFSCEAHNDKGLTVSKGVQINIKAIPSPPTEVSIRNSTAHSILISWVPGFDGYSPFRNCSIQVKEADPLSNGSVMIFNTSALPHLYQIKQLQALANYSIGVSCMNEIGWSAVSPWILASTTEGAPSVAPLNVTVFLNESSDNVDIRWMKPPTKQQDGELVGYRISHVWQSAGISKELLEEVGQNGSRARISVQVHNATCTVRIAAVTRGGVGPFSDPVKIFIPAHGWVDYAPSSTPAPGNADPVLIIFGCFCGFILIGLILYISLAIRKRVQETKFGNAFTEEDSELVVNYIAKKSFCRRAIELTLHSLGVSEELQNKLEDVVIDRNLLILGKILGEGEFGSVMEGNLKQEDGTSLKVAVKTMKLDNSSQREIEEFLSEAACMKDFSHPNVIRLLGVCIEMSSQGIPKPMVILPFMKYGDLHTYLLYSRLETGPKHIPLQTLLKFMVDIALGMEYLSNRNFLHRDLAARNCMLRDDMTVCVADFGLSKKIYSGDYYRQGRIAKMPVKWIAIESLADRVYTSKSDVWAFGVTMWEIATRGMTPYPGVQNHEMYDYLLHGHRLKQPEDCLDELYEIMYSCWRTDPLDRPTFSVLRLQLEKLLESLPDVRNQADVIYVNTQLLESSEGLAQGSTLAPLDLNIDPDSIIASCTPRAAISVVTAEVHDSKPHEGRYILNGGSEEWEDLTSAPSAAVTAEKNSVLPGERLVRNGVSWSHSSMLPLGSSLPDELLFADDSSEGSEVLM

FGFR1 = FGFR1 (UniProt P11362); test: as above
Chain of FGFR1 (P11362 whole entry, looked up): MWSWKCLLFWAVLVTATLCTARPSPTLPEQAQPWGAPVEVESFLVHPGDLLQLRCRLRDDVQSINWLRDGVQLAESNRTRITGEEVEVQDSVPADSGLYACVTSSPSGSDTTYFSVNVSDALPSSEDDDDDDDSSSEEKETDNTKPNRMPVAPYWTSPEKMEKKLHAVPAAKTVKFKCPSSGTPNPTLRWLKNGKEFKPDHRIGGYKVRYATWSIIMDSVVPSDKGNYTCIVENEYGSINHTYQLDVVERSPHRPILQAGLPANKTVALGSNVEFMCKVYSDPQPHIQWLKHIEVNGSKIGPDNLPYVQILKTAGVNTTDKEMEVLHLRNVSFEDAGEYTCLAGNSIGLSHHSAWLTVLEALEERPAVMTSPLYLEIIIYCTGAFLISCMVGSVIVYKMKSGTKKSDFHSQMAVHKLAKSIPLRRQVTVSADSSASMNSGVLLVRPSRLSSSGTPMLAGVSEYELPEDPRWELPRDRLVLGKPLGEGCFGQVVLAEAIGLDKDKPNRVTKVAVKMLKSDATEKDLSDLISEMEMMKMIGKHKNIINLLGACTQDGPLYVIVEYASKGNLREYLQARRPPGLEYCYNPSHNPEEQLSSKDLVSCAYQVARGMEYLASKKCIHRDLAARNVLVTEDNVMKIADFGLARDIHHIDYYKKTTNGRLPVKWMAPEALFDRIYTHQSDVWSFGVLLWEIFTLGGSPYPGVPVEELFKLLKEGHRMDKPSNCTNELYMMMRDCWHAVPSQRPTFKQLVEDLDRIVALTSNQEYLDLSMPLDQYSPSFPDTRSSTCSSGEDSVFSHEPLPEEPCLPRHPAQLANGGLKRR

Fyn = Fyn (UniProt P06241); test: as above
Chain of Fyn (P06241 whole entry, looked up): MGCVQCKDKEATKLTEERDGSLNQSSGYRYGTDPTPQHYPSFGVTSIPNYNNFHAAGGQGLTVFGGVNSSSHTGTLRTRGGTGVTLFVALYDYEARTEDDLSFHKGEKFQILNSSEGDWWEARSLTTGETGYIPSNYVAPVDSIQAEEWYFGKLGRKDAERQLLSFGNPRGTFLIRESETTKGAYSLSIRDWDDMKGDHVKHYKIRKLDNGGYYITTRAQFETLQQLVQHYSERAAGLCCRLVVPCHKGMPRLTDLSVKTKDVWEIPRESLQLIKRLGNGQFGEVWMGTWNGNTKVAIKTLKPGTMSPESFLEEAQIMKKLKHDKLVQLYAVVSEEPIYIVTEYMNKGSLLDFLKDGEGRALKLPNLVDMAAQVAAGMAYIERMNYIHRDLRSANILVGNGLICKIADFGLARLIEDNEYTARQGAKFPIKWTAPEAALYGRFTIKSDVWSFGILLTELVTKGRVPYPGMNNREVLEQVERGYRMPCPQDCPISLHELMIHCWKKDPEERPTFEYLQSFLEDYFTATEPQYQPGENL

EPHB2 = EPHB2 (UniProt P29323); test: as above
c-Src = test: as above
FGFR3 = FGFR3 (UniProt P22607); test: as above
Chain of FGFR3 (P22607 whole entry, looked up): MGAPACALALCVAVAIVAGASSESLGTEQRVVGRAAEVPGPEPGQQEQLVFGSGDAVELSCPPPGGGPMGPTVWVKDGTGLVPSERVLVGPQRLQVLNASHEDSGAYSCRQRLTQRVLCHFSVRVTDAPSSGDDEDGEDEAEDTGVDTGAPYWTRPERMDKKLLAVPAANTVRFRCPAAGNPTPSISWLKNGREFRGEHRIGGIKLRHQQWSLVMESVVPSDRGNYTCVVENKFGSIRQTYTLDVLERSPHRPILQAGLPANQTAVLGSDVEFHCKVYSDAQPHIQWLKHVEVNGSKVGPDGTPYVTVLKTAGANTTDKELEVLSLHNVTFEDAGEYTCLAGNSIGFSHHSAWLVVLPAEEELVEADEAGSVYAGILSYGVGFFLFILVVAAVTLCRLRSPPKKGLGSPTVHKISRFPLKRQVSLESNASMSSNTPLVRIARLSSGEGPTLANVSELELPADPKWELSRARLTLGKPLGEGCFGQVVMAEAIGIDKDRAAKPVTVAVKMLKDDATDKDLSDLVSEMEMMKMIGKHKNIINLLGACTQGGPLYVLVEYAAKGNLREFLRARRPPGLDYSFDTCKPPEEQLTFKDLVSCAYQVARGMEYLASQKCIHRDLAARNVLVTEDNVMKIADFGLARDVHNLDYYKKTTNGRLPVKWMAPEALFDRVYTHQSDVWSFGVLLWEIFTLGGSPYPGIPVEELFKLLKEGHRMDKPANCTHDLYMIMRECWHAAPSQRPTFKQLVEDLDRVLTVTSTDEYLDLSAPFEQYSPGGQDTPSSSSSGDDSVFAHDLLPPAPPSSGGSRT

Fes = Fes (UniProt P07332); test: as above
Chain of Fes (P07332 whole entry, looked up, the tested form may be a part): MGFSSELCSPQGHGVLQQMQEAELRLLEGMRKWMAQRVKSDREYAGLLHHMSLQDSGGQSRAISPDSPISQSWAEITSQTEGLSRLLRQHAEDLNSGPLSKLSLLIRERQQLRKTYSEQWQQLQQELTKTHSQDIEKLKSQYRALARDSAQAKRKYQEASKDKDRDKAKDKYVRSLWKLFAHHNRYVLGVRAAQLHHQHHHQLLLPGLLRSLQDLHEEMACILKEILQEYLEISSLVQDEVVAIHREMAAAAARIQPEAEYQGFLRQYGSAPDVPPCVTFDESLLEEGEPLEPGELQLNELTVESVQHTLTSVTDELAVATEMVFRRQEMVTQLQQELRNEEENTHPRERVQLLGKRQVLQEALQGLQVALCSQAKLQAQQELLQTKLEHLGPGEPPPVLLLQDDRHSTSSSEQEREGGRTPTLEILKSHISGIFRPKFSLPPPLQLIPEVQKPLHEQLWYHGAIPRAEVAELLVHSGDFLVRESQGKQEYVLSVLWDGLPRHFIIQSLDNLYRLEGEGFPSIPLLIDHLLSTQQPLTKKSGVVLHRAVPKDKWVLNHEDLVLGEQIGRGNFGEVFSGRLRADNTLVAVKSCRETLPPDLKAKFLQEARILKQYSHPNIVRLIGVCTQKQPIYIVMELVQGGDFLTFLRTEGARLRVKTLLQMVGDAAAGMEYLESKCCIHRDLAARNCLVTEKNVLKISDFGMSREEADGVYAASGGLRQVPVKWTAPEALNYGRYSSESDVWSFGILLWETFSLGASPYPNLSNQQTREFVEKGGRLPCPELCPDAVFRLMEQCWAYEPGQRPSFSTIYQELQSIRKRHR
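Throughout, for SH2 binding enrichment of the phosphorylated peptide, bacterial display: peptide library displayed on the E. coli surface as eCPX fusions, selected cells deep-sequenced, score is each peptide's frequency after selection divided by its frequency in the input.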
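Throughout, for phosphorylation enrichment, bacterial display: 11-residue human phosphosite peptides and single-mutation variants displayed on the E. coli surface, counted by deep sequencing, each peptide's frequency after selection divided by its frequency in the unselected input library; frequency after pTyr selection over input frequency; kinase dosed for 20-30% of maximal phosphorylation in three min.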

Chain of Grb2 SH2 (P62993 whole entry, looked up): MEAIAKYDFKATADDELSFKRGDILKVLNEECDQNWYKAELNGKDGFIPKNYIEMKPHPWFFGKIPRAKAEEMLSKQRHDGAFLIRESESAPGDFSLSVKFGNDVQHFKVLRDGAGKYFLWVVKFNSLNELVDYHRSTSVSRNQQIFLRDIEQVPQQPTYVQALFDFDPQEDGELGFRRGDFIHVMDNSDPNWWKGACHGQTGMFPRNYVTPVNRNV

Row | Sequence | SH2 binding enrichment (c-Src SH2) | SH2 binding enrichment (Grb2 SH2) | SH2 binding enrichment (SHP2-C SH2) | phosphorylation enrichment (c-Abl (mouse)) | phosphorylation enrichment (AncSZ) | phosphorylation enrichment (EPHB1) | phosphorylation enrichment (Hck) | phosphorylation enrichment (Jak2) | phosphorylation enrichment (Fer (mouse)) | phosphorylation enrichment (MERTK) | phosphorylation enrichment (FGFR1) | phosphorylation enrichment (Fyn) | phosphorylation enrichment (EPHB2) | phosphorylation enrichment (c-Src) | phosphorylation enrichment (FGFR3) | phosphorylation enrichment (Fes)
1 | VKPRRYRPGTV [H3-5_Y41_H39R] | 0.576 | 0.835 | 0.514 | 0.512 | 0.622 | 0.56 | 0.5 | 0.588 | 0.463 | 0.577 | 0.53 | 0.58 | 0.51 | 0.608 | 0.466 | 0.542
2 | VKYLGYPPPEI [KDR_Y357_A352V] | 0.495 | 0.896 | 1.84 | 0.796 | 0.7 | 0.468 | 0.451 | 0.489 | 0.37 | 0.427 | 0.666 | 0.486 | 0.491 | 0.403 | 0.626 | 0.719
3 | VLICAYLLHRG [PTEN_Y138_M134L] | 1.09 | 1.11 | 1.31 | 0.833 | 1.06 | 0.62 | 0.608 | 0.929 | 0.856 | 0.412 | 0.44 | 0.515 | 0.661 | 0.516 | 0.809 | 1.33
4 | VLSIDYYFPPQ [AR_Y552_P549S] | 1.34 | 1.47 | 1.55 | 1.24 | 6.35 | 3.13 | 0.881 | 6.81 | 0.605 | 3.5 | 13.3 | 1.03 | 3.2 | 2.17 | 10.8 | 1.09
5 | VLTSKHRGGGG [HBA1_Y141_Y141H] | 0.823 | 1.02 | 0.751 | 0.418 | 0.486 | 0.318 | 0.322 | 0.332 | 0.222 | 0.677 | 0.464 | 0.527 | 0.225 | 0.344 | 0.419 | 0.396
6 | VMAALYGRLFE [BTD_Y536_T532M_YF] | 1.18 | 1.59 | 1.44 | 0.967 | 0.981 | 0.597 | 5.53 | 1.03 | 0.612 | 1.34 | 0.457 | 6.68 | 0.743 | 6.1 | 0.752 | 1.18
7 | VMAALYGRLYE [BTD_Y536_T532M] | 1.52 | 1.3 | 1.53 | 0.8 | 0.795 | 0.961 | 5.58 | 0.864 | 1.38 | 3 | 0.468 | 5.87 | 1.42 | 5.01 | 0.617 | 0.963
8 | VNYGAYINYFK [GLB1_Y488_D491Y] | 1.23 | 3.13 | 1.12 | 0.941 | 0.894 | 1.9 | 1.1 | 1.7 | 0.488 | 0.629 | 0.905 | 1.22 | 2.03 | 1.08 | 0.986 | 1.06
9 | VQEDIYDEFVV [ALDH2_Y332_E337V] | 0.495 | 0.824 | 0.822 | 1.75 | 1.55 | 0.676 | 2.81 | 1.37 | 5.77 | 3.17 | 0.599 | 3.96 | 0.827 | 3.57 | 0.886 | 1.25
10 | VTPSEYLEIVR [TMEM130_Y412_E407V] | 0.521 | 0.763 | 0.825 | 0.681 | 0.969 | 1.21 | 0.751 | 0.762 | 0.45 | 0.387 | 0.557 | 0.51 | 0.618 | 0.44 | 0.736 | 0.859
11 | VTRKEYFIFLE [CAMKV_Y95] | 1.03 | 1.55 | 1.43 | 0.792 | 1.11 | 0.696 | 0.43 | 1.01 | 0.528 | 0.401 | 0.786 | 0.481 | 0.554 | 0.695 | 0.838 | 1.06
12 | VVKLAYNENDN [CAMKK2_Y183] | 0.408 | 0.904 | 0.622 | 0.592 | 0.856 | 0.449 | 0.527 | 0.624 | 0.484 | 0.374 | 0.518 | 0.478 | 0.55 | 0.404 | 0.672 | 0.897
13 | VVKLTYNENDN [CAMKK2_Y183_A182T] | 0.469 | 0.815 | 0.673 | 0.551 | 0.939 | 0.491 | 0.5 | 0.726 | 0.577 | 0.467 | 0.618 | 0.468 | 0.545 | 0.419 | 0.564 | 0.917
14 | VVKTVYSLQPP [KNSTRN_Y87] | 0.441 | 0.803 | 1.03 | 0.777 | 0.862 | 0.571 | 1.17 | 0.681 | 0.387 | 2.61 | 0.458 | 2.59 | 0.45 | 2.46 | 0.525 | 0.817
15 | VVKTVYSLQPS [KNSTRN_Y87_P92S] | 0.482 | 0.651 | 0.981 | 0.716 | 0.648 | 0.671 | 0.688 | 0.715 | 0.485 | 1.42 | 0.52 | 1.73 | 0.455 | 2.05 | 0.561 | 0.848
16 | VVQGIYGYHHY [UFSP2_Y285] | 0.829 | 1.12 | 1.11 | 7.67 | 0.923 | 3.24 | 10.5 | 0.683 | 16.7 | 11.3 | 0.662 | 11.8 | 8.76 | 8.86 | 0.575 | 1.04
17 | WAMPAYNRSKL [WWOX_Y293_L291P] | 0.431 | 0.909 | 0.668 | 0.339 | 0.457 | 0.289 | 0.263 | 0.402 | 0.281 | 0.257 | 0.296 | 0.328 | 0.357 | 0.298 | 0.324 | 0.451

Row | Sequence | SH2 binding enrichment (c-Src SH2) | SH2 binding enrichment (Grb2 SH2) | SH2 binding enrichment (SHP2-C SH2) | phosphorylation enrichment (c-Abl (mouse)) | phosphorylation enrichment (AncSZ) | phosphorylation enrichment (EPHB1) | phosphorylation enrichment (Hck) | phosphorylation enrichment (Jak2) | phosphorylation enrichment (Fer (mouse)) | phosphorylation enrichment (MERTK) | phosphorylation enrichment (FGFR1) | phosphorylation enrichment (Fyn) | phosphorylation enrichment (EPHB2) | phosphorylation enrichment (c-Src) | phosphorylation enrichment (FGFR3) | phosphorylation enrichment (Fes)
18 | WANPEYTGGFK | 0.656 | 0.801 | 0.618 | 0.917 | 1.29 | 0.549 | 0.575 | 0.734 | 0.413 | 0.364 | 0.43 | 0.422 | 0.383 | 0.685 | 0.646 | 1
19 | WDLTDYLMKIL [ACTB_Y188_R183W] | 1.32 | 1.66 | 1.92 | 0.894 | 1.25 | 0.556 | 0.611 | 1.23 | 0.529 | 0.477 | 0.539 | 0.519 | 0.548 | 0.487 | 0.777 | 1.32
20 | WFPANYVKLLN [ITSN1_Y1132_S1137N] | 0.646 | 0.919 | 2.22 | 0.759 | 1.06 | 3.81 | 0.536 | 1.45 | 0.511 | 0.587 | 0.599 | 0.53 | 1.21 | 0.532 | 0.76 | 1.14
21 | WIPNQYPIISE [NOG_Y222_I220N] | 0.605 | 0.788 | 0.827 | 0.747 | 0.86 | 0.427 | 0.465 | 0.862 | 0.541 | 0.342 | 0.63 | 0.361 | 0.526 | 0.636 | 0.671 | 0.98
22 | WRPFGYPHRRR [BCS1L_Y181_R183H] | 0.478 | 0.662 | 0.633 | 0.5 | 0.622 | 0.534 | 0.509 | 0.509 | 0.512 | 0.505 | 0.507 | 0.488 | 0.461 | 0.473 | 0.554 | 0.511
23 | WTAHSYRMGSA [ARHGEF7_Y785_T790A] | 0.545 | 0.96 | 0.794 | 0.495 | 0.683 | 0.477 | 0.443 | 0.679 | 0.38 | 0.377 | 0.556 | 0.503 | 0.457 | 0.48 | 0.438 | 0.736
24 | YADGVYQALEE [DUOX2_Y70] | 0.765 | 0.806 | 0.623 | 2.69 | 1.71 | 2.83 | 3.86 | 1.11 | 1.55 | 1.91 | 0.751 | 4.15 | 2.82 | 4.45 | 0.809 | 1.38
25 | YDYKKYGKGLR [ZNF445_Y433] | 0.749 | 0.939 | 1.02 | 0.48 | 0.41 | 0.318 | 0.366 | 0.444 | 0.373 | 0.358 | 0.371 | 0.323 | 0.276 | 0.346 | 0.536 | 0.517
26 | YECKWYIPLTD [BCR_Y756_D752E] | 0.477 | 0.704 | 0.665 | 1 | 1.48 | 0.843 | 0.585 | 1.48 | 0.657 | 0.922 | 0.812 | 0.469 | 0.774 | 0.576 | 1.1 | 1.56
27 | YHRQLYHKCTH [F12_Y58] | 1.44 | 1.34 | 1.22 | 0.641 | 0.886 | 0.41 | 0.53 | 0.653 | 0.467 | 0.571 | 0.453 | 0.378 | 0.537 | 0.481 | 0.606 | 0.795
28 | YKEQGYHRLPP [RIN1_Y681] | 0.904 | 1.11 | 0.917 | 0.455 | 0.478 | 0.363 | 0.35 | 0.977 | 0.365 | 0.346 | 0.622 | 0.462 | 0.364 | 0.431 | 0.544 | 0.507
29 | YKGKNYKPLDL [RPL35_Y78_K77N] | 0.516 | 0.9 | 0.846 | 0.575 | 0.423 | 0.277 | 0.276 | 0.59 | 0.267 | 0.333 | 0.32 | 0.334 | 0.246 | 0.391 | 0.362 | 0.697
30 | YKIYLYTLNDN [FN1_Y1975] | 0.483 | 0.794 | 0.851 | 1.09 | 1.34 | 0.801 | 0.563 | 1.4 | 0.671 | 0.383 | 0.541 | 0.479 | 0.711 | 0.431 | 1.02 | 1.52
31 | YLQEIYNSNNQ [FGG_Y140] | 0.51 | 0.679 | 0.77 | 0.692 | 0.918 | 0.617 | 1.54 | 0.998 | 0.512 | 0.441 | 0.436 | 1.59 | 0.561 | 1.84 | 0.606 | 1.23
32 | YLRTGYSVPYG [TGM1_Y370] | 9.92 | 0.848 | 1.64 | 0.777 | 0.834 | 0.4 | 0.493 | 0.893 | 0.489 | 0.666 | 0.495 | 0.42 | 0.534 | 0.408 | 0.532 | 0.685
33 | YRIGPYQPSVP [MATR3_Y784_N787S] | 0.668 | 0.829 | 0.996 | 0.62 | 0.55 | 0.421 | 0.481 | 0.524 | 0.429 | 0.425 | 0.749 | 0.514 | 0.434 | 0.449 | 0.759 | 0.708
